Our source for the Km, Vmax and kcat values is paper PMC7502447, “Characterization and functional analysis of two novel thermotolerant α-L-arabinofuranosidases belonging to glycoside hydrolase family 51 from Thielavia terrestris and family 62 from Eupenicillium parvum” (Applied Microbiology and Biotechnology, 2020).

The Km is the concentration of substrate that gives half-maximal velocity. One may read the Vmax as the top rate of the reaction or transport when substrate is in excess. As a reminder, the kcat is the maximal rate divided by the concentration of active sites.

Substrate in this series: O=[N+]([O-])c1ccc(O[C@@H]2O[C@@H](CO)[C@H](O)[C@H]2O)cc1
Kind of series: purified protein. The format is biochemical, Thermothielavioides terrestris. The settings on record: standard conditions, sodium acetate buffer, optimum pH 5.0, 70 °C.

B1: TtABF51A (Thermothielavioides terrestris NRRL 8126) (protein)
chain: AVTLSVAKSGGNATSPYMYGIMFEDISHSGDGGLYAELIQNRAFQNGTLDAWSAVGGATLALDTSTPLSQALPRSVKVTGGQHTAGLKNSGFWGFDVKKSKKYTGSFYSYGEYSGRFTVSLVSNTTSEIFATTTVKSKSVAGRWTQHTFELRPTKDAPDISNSFVLEYKPTPHTELKFNLISLFPPTYKNRANGMRPELMEKLKELNPTYIRCPGGNNVEGNYAGNYWNWSATVGPLKDRPGRPGTWGYYNTDGLGLVEYMHWAEDLGMDVVLAVPAGLYLDGEVVSEADLAPFVQDALNELEFLMGDVSTPYGALRAKLGYPKPWKIKFVEIGNEDNLWGGLDSYKGYRFRMFYDAIKAKYPDIFIFSSTAEYMYKQSGRDYHEYTRPDYFVSQFGMFDNWTAGNPIMIGEFASIQNNTGKLEDTDWNAPKNPWSTWIGSVAEAVFLLGAERNSDRVWGVSFAPLLQNLNSYQWTPDLISFTADPADTTVSVSYPILSLFAKHPLTHTLPATAANGTSFGPAYWVAGRNDAAGTYLLKAAVYNSTGGAEVPFRVGFDGLSRGAPATLTVLTAPGGPFAHNTPANKNAVKTAVTQLRAGEGGVLEFSLPDLSVAVLEAKW
notes: full length 640 aa; predicted 20-aa signal peptide removed; C-terminal 6xHis; predicted N-terminal CBM4_9 kept; expressed in Trichoderma reesei D-86271
Take B1: the Michaelis-Menten constant (Km) turned out to be 300 ± 20 µM, the maximal velocity (Vmax) came out at 108 µmol/min/mg and the kcat stood at 123 ± 2.91 s⁻¹.
